Article PMC11314397, “Purification and Characterization of Proteinaceous Thermostable α-Amylase Inhibitor from Sardinian Common Bean Nieddone Cultivar (Phaseolus vulgaris L.)” (Plants, 2024)

Assays:
[1] = target: α-amylase from Tenebrio molitor (Tenebrio molitor (endogenous in larvae)) (UniProt P56634)
[2] = target: T1, α-amylase from porcine pancreas (porcine, UniProt P00690 16-511); test: enzyme inhibition kinetics (Lineweaver-Burk); porcine α-amylase with 0, 0.25 and 0.50 µM α-AI, CNP-G3 0.1 to 5 mM as substrate, 250 mM sodium phosphate pH 6.5, 60 mM NaCl, 5 mM CaCl2, 500 mM KSCN, 37 °C, 10 min preincubation; mixed-type inhibition; settings: both partners purified
T1 construct: pancreatic α-amylase, pig, from porcine pancreas; also called porcine pancreatic α-amylase; pig α-amylase; source: bought: Sigma-Aldrich (Type VI-B A3176-2.5MU)
T1 sequence (looked up): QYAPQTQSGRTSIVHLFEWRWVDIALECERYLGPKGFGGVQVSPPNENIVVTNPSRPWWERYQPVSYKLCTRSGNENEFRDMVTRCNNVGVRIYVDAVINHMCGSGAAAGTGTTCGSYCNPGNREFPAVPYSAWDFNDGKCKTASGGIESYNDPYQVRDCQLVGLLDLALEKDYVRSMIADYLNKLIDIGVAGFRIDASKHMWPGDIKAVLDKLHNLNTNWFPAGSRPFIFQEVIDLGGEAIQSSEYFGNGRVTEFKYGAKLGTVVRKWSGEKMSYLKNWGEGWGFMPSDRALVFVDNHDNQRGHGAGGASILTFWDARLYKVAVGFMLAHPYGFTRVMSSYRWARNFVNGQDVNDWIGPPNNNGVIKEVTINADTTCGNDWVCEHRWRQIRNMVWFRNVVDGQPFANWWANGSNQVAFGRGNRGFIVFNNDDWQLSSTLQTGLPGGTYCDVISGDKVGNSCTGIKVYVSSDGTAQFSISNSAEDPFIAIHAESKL

α-amylase from Tenebrio molitor (Tenebrio molitor (endogenous in larvae)), sequence (P56634 whole entry): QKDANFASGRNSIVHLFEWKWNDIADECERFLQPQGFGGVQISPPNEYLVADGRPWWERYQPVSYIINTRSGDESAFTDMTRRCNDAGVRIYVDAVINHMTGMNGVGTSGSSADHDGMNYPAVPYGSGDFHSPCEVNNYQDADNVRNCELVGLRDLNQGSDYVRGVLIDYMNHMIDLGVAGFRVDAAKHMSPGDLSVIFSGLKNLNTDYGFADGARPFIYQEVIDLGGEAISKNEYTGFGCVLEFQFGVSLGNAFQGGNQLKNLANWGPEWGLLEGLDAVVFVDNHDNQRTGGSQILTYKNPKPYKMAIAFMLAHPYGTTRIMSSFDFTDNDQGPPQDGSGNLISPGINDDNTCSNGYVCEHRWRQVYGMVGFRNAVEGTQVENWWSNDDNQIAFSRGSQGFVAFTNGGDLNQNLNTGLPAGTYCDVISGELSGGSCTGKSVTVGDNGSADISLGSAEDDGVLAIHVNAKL

inhibitory power against α-amylase, CNP-G3 assay; susceptibility against that of human salivary and porcine pancreatic α-amylase [1]: 3 fold
Ki [2]: 170 nM
B1: α-amylase inhibitor (α-AI) purified from Phaseolus vulgaris Nieddone cultivar (complex)
chain 1: ATETSFIIDAFNKTNLILQGDATVSSNGNLQLSYNSYDSMSRAFYSAPIQIRDSTTGNVASFDTNFTMNIRTHRQAN
chain 2: SAVGLDFVLVPVQPESKGDTVTVEFDTFLSRISIDVNNNDIKSVPWDVHDYDGQNAEVRITYNSSTKVFSVSLSNPSTGKSNNVSTTVELEKEVYDWVSVGFSATSGAYQWSYETHDVLSWSFSSKFINLKDQKSERSN
modifications: native seed glycoprotein (N-glycosylated; sites not given); alpha2beta2 tetramer cleaved after Asn77 (mature numbering, = Asn100 of precursor). Reference sequence P02873 used: Nieddone cultivar …
